Changes are numbered by the printed parent chain. “And” between values parts separate entries of the source, which are not always exact repeats. Equal values may be shown once.

Test in all cases: BLI; Octet RED96; human mAb loaded on anti-human IgG Fc capture sensor tips; parental PvRBP2b169-470 or design in solution, 2-fold series 0.63 to 10 nM; 25 °C; PBS, 0.1% bovine serum albumin, 0.05% Tween-20; global fit 1:1 model; two independent experiments
Holding throughout (settings): both partners purified
For orientation: BLI is a label-free optical method that tracks binding on a fibre tip over time.

The target in experiment [1] is T1, parental PvRBP2b_(169-470) (Plasmodium vivax reticulocyte-binding protein 2b, N-terminal domain) (Plasmodium vivax strain Salvador I, UniProt A5K736).
T1 construct: TEV cleavage site between the His tag and the protein; pPROEX HTb vector; also called parental construct; parental protein

Experiment [2] deals with T2, WHT2483 (PROSS-MPNN stabilized design of PvRBP2b_(169-470)) (Plasmodium vivax strain Salvador I …, Gln378Leu | Arg418Glu).
T2 construct: PvRBP2b, P. vivax strain Salvador I, PVX_094255, residues 169-470 with 19 designed stabilising mutations; 19 mutations relative to the parental protein; crystal structure PDB 9DZC solved here
T2 chain: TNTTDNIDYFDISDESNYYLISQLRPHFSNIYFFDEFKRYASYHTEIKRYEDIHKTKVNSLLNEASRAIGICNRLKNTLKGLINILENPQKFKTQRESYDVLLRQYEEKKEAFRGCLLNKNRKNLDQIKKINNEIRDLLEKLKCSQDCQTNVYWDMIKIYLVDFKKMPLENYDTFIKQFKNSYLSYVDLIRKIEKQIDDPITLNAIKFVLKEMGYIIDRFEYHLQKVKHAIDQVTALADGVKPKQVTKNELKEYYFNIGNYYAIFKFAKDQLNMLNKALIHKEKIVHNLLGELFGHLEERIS

The target in experiment [3] is T3, WHT2484 (PROSS-MPNN stabilized design of PvRBP2b_(169-470)) (Plasmodium vivax strain Salvador I …, Lys248Leu | Met324Phe | Gln378Leu | Arg418Glu).
T3 construct: PvRBP2b, P. vivax strain Salvador I, PVX_094255, residues 169-470 with 26 designed stabilising mutations; 26 mutations relative to the parental protein; crystal structure PDB 9DZD solved here
T3 chain: T2 chain with K80L, K141R, M156F, I193Y, N204Q, V234I, L237I

B1: human mAb 253245 (antibody, V domains shown)
VH: EVQLVQSGAEVKKPGSSMKVSCKASGGTFNRYVFSWVRQAPGQGLEWMGGILPILETTYYAKNFKGRVTITADESTSTVYMELSSLTSEDTAVYFCARDEHDYVWGSYRPSLTGPWGQGTLVTVSS
VL: QSALTQPPSTSGSPGQSVTISCTGTGIDVGGFSYVSWFQYHPGKAPKLIIFEVTKRPSGVPDRFSGSKSGNTASLTISGLQADDEAEYYCSSYAVNNNFVFGTGTKVTVL
notes: naturally acquired human mAb, recombinant IgG captured by its Fc; source: Expi293 HEK cells, transfected, purified (protein A, SEC)
The Kd is the free concentration of one partner at which half of the binding sites on the other are occupied at equilibrium, for simple one-to-one binding. The term koff denotes a measure of how fast the partners let go of each other. The kon is the second-order rate constant of association. With B1, in experiment [1], the Kd was < 1 pM; the off-rate (koff) is < 1e-07 s⁻¹; the on-rate constant (kon) was 1.58e+06 M⁻¹ s⁻¹ and 1.18e+06 M⁻¹ s⁻¹. Also, the kon in experiment [2] was 1.04e+06 M⁻¹ s⁻¹ and 1.26e+06 M⁻¹ s⁻¹. In addition, in experiment [3], the kon is 1.06e+06 M⁻¹ s⁻¹ and 1.12e+06 M⁻¹ s⁻¹.

B2: human mAb 237235 (antibody, V domains shown)
VH: QVQLVESGGGVVQPGRSLRLSCAASGFMFNSYGMHWVRQAPGKGLEWMAFISYDGSDDYYGDSVKGRITISRDNSKNTLFLHINSLRTEDTAVYYCAKESNYGENAFDVWGHGTMVTVSS
VL: QSALTQPRSVSGSPGQSVTISCTGTSNDVGFYNFVSWYQHHPGKAPKLMIYDVTERPSGVPDRFSGSKSGNTASLTISGLQAEDEAEYYCCSYAGTYTFVFGHGTKVTVL
notes: as for B1
Regarding B2, in experiment [1], the equilibrium dissociation constant (Kd) was < 1 pM; the koff was < 1e-07 s⁻¹; the kon is 1.78e+06 M⁻¹ s⁻¹ and 1.31e+06 M⁻¹ s⁻¹. For the same molecule, the Kd in experiment [2] was ≤ 0.01 nM. Also, the on-rate constant (kon) in experiment [3] was 658000 M⁻¹ s⁻¹ and 745000 M⁻¹ s⁻¹.

B3: human mAb 243244 (antibody, V domains shown)
VH: QVQLVESGGGVVQSGKSLRVSCAASGFTFSSYGMHWVRQAPGKGLEWVAFISYDGDNKYSADSVKGRLTISRDNSKNTLYLQMNSLRPEDTAVYYCAKESNYGENAFDIWGQGTMVTVSS
VL: B2 VL with N27S, M49I, T54S, T76S, A82P, E87D, H103S
notes: as for B1
In the case of B3, the Kd is < 1 pM in experiment [1]; 0.053 nM and 0.018 nM in experiment [2]. The off-rate (koff) in experiment [1] is < 1e-07 s⁻¹. Also, the kon in experiment [1] was 1.75e+06 M⁻¹ s⁻¹ and 1.32e+06 M⁻¹ s⁻¹; in experiment [2], 1.02e+06 M⁻¹ s⁻¹ and 1.24e+06 M⁻¹ s⁻¹; in experiment [3], 705000 M⁻¹ s⁻¹ and 780000 M⁻¹ s⁻¹.

B4: human mAb 283284 (antibody, V domains shown)
VH: QVQLQQWGAGLLKPSETLALTCTVYGGSSSGYYWNWIRQSPGKGLEWIGEISDSGSTIYNPSLESRVTMSVDTSKNQFSLKLTSVTAADTAVYYCAKAILTRYNWLDPWSQGTLVTVSS
VL: DIVMTQSPSSLSASVGDRISISCRASQGVNSALAWYQQKPGKAPKLLIYDASTLESGVPSRFSGSGSGTDFALTINSLQPEDFATYYCQQFNSYPLTFGGGTKVEIK
notes: as for B1
In the case of B4, in experiment [1], the Kd is < 1 pM; the koff was < 1e-07 s⁻¹; the on-rate constant (kon) was 1.48e+06 M⁻¹ s⁻¹ and 994000 M⁻¹ s⁻¹. The kon in experiment [2] was 838000 M⁻¹ s⁻¹ and 910000 M⁻¹ s⁻¹. In experiment [3], the dissociation constant Kd was 0.112 nM and 0.074 nM; the koff is 0.000113 s⁻¹ and 6.89e-05 s⁻¹; the kon is 1.01e+06 M⁻¹ s⁻¹ and 936000 M⁻¹ s⁻¹.

B5: human mAb 251249 (antibody, V domains shown)
VH: EVQLVESGGGLVKPGGSLRLSCEASGFLFSSYSMNWVRQAPGKGLEWVSSITGYSSEVFYTDSVKGRFTVSRDNSKNSLYLQMDSLRAEDTAVYYCARALTIFGVVITDYWFFDLWGRGTLVTVSS
VL: EIVLTQSPATLSLSPGDRATLSCRASQSVTTFLAWYQQKPGQAPRLLIYDVSNRATGIPARFSGSGSGTDFTLTISSLEPEDFAVYYCQQRSNWGLTFGGGTKVEIK
notes: as for B1
With B5, in experiment [1], the Kd was < 1 pM; the koff was < 1e-07 s⁻¹; the kon was 1.63e+06 M⁻¹ s⁻¹ and 1.25e+06 M⁻¹ s⁻¹. In experiment [2], the kon was 978000 M⁻¹ s⁻¹ and 1.37e+06 M⁻¹ s⁻¹. In experiment [3], the dissociation constant Kd was 0.11 nM and 0.314 nM; the association rate constant (kon) is 956000 M⁻¹ s⁻¹ and 1.26e+06 M⁻¹ s⁻¹.

B6: human mAb 241242 (antibody, V domains shown)
VH: EVQLLESGGGLVQPGGSLRLSCAVSGFTFRNYALSWVRQAPGKGLDWVSTISASGGATYYADSVKGHFTISRDNSKNILYLDMKSLRAEDTAIYYCARDGGSYTPYFFLDSWGQGALVTVSS
VL: SYELTQPASVSVAPGQTAQITCGGNSIGRKSIHWYQHKPGQAPVLVISYDSDRPSGIPERFSGSNSGNTATLTISKVEAGDEADFYCQVRDSDNDHVVFGGGTKLTVL
notes: as for B1
Turning to B6, in experiment [1], the dissociation constant (Kd) is < 1 pM; the koff was < 1e-07 s⁻¹; the association rate constant (kon) is 1.24e+06 M⁻¹ s⁻¹ and 1.52e+06 M⁻¹ s⁻¹. Besides, the on-rate (kon) in experiment [3] is 956000 M⁻¹ s⁻¹ and 1.18e+06 M⁻¹ s⁻¹.

B7: human mAb 258259 (antibody, V domains shown)
VH: EVQLLESGGGLVRPGGSQRLSCAASGFTFTPYAMTWVRQAPGKGLEWLSTISGSGGSTYYADSVKGRFTISRDNSKNMLYLQMNSLTAEDTALYYCTKDKDEYTFGHNAFDVWGQGTMVTVSS
VL: SYELTQAPSVSVAPGQTARITCGGDNIGRKTVNWYQQKPGQAPVLVIYYDNDRPSGIPERFSGSNSGNMATLSISRVEVGDEADYYCQVWDSNNDHPVFGGGTKLTVV
notes: as for B1
Turning to B7, in experiment [1], the Kd is < 1 pM; the koff is < 1e-07 s⁻¹; the kon is 1.33e+06 M⁻¹ s⁻¹ and 976000 M⁻¹ s⁻¹. In experiment [2], the dissociation constant Kd was 0.085 nM and 0.059 nM; the koff is 6.59e-05 s⁻¹ and 5.6e-05 s⁻¹; the association rate constant (kon) is 778000 M⁻¹ s⁻¹ and 949000 M⁻¹ s⁻¹. In addition, in experiment [3], the Kd is 0.069 nM and 0.081 nM; the dissociation rate constant (koff) was 5.39e-05 s⁻¹ and 7.69e-05 s⁻¹; the on-rate (kon) is 778000 M⁻¹ s⁻¹ and 953000 M⁻¹ s⁻¹.

B8: human mAb 273264 (antibody, V domains shown)
VH: B7 VH with Y59S, M78I, N84D, T87R, Q115R
VL: B7 VL with K30T, T31S, N33H, Y48F
notes: as for B1
Regarding B8, in experiment [1], the dissociation constant (Kd) was < 1 pM; the off-rate (koff) was < 1e-07 s⁻¹; the kon was 1.18e+06 M⁻¹ s⁻¹ and 1e+06 M⁻¹ s⁻¹. Also, in experiment [2], the Kd is 0.089 nM and 0.154 nM; the koff was 6.92e-05 s⁻¹ and 0.000165 s⁻¹; the on-rate constant (kon) was 778000 M⁻¹ s⁻¹ and 1.07e+06 M⁻¹ s⁻¹. In experiment [3], the Kd was 0.139 nM and 0.101 nM; the koff is 0.000124 s⁻¹ and 0.000106 s⁻¹; the kon was 893000 M⁻¹ s⁻¹ and 1.05e+06 M⁻¹ s⁻¹.

These data come from paper PMC11929097, “Stabilized designs of the malaria adhesin protein PvRBP2b for use as a potential diagnostic for Plasmodium vivax [image fx2.gif]” (The Journal of Biological Chemistry, 2025).
